{"source": "patent US20250163117A1", "about": "(CURE GENETICS, published 2025)", "binders": {"B1": {"name": "CP-trIL-2 012 (ligand)", "chain": "PTSSSTKKTQLQLEHLLLDLQMILNGINNYKNPLRPRDLISNINVIVLELKGSETTELKHLQSLEEELKDLEEVLNLAQSKNFHTIVEFLNRWITFSQSIISTLT", "notes": "H1-H3-H2-H4; loops 1 and 2 removed; de-Ala1, C58S, C125S, P65D"}}, "key": {"[1]": {"biological_target": "T1, mouse intermediate-affinity IL-2 receptor IL-2Rβγ on cells (mouse, UniProt P16297 27-539; P34902 23-369)", "T1 sequence (looked up) 1": "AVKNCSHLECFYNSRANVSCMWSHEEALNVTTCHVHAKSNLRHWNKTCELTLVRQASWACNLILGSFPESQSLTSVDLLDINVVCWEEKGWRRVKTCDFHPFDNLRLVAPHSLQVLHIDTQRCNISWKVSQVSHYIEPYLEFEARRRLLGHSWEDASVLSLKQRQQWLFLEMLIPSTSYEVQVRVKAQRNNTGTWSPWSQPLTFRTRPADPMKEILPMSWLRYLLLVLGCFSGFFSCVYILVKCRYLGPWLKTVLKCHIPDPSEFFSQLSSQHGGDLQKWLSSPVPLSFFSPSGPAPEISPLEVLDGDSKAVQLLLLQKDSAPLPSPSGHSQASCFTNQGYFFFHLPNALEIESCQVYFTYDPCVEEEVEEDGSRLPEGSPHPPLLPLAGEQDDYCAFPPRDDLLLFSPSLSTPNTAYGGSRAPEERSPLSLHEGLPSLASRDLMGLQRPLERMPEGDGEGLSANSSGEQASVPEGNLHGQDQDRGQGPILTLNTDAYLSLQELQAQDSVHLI", "T1 sequence (looked up) 2": "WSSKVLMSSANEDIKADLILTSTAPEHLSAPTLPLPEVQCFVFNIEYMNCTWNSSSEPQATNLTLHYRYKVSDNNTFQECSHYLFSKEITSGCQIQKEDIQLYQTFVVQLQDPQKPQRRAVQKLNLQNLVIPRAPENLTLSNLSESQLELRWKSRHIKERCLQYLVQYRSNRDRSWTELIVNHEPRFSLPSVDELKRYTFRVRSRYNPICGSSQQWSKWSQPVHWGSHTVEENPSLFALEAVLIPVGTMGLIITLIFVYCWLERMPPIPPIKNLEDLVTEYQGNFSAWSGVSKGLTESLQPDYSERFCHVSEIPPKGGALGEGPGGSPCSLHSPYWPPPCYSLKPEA", "test": "cell-based or functional assay"}, "[2]": {"biological_target": "T2, mouse high-affinity IL-2 receptor IL-2Rαβγ on cells (mouse, UniProt P01590 22-268; P16297 27-539; P34902 23-369)", "T2 sequence (looked up) 1": "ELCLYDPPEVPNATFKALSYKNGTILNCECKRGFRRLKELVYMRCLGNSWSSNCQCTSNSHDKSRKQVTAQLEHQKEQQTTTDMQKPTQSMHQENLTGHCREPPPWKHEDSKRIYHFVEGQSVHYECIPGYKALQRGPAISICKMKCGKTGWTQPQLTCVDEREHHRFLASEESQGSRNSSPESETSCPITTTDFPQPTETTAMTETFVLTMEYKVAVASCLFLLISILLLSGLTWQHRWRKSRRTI", "T2 sequence (looked up) 2": "T1 sequence (looked up) 1", "T2 sequence (looked up) 3": "T1 sequence (looked up) 2", "test": "cell-based or functional assay"}, "[3]": {"biological_target": "T3, Human IL-2RB (IL-2Rβ/CD122) protein (human, UniProt P14784 27-239)", "T3 construct": "Receptor protein used as SPR ligand", "T3 sequence (looked up)": "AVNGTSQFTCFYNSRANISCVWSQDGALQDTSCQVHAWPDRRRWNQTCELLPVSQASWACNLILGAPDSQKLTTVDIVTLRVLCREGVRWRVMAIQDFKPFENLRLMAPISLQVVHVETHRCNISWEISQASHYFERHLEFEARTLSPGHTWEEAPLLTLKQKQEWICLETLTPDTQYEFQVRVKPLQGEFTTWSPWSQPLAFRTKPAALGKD", "test": "SPR (Biacore, receptor immobilised on CM5 chip, IL-2 as analyte)", "description": "(§1) The human IL-2 receptors used in this study included IL-2Rα/CD25, IL-2Rβ/CD122, common γ receptor/CD132, IL-2Rβ&IL-2Rγ heterodimer protein, and IL-2Rβ&IL-2Rα&IL-2Rγ protein. The IL-2 receptor proteins were immobilized on a Biacore™ sensor chip CM5 according to manufacturer's protocol. […] The resulting sensorgrams were analyzed with the native instrument software to calculate the binding affinities."}, "[4]": {"biological_target": "T4, Human IL-2RA (IL-2Rα/CD25) protein (human, UniProt P01589 22-217, limits assumed)", "T4 construct": "Receptor protein used as SPR ligand", "T4 sequence (looked up)": "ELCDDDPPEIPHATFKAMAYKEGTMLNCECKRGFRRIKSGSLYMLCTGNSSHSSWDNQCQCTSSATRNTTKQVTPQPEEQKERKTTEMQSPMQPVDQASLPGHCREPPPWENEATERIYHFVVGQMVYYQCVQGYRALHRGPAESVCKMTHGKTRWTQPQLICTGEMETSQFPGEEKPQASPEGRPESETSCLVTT", "test": "SPR (Biacore, receptor immobilised on CM5 chip, IL-2 as analyte)", "description": "as §1"}, "[5]": {"biological_target": "T5, Human IL-2RG (common γ receptor/CD132) protein (human, UniProt P31785 23-262, limits assumed)", "T5 construct": "Receptor protein used as SPR ligand", "T5 sequence (looked up)": "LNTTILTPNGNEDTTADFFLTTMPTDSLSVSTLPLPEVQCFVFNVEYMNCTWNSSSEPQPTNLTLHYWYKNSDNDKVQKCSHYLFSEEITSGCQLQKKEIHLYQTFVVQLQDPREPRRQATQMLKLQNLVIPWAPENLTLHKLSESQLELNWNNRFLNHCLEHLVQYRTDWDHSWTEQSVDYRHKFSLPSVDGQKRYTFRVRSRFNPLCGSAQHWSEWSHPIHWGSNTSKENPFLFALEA", "test": "SPR (Biacore, receptor immobilised on CM5 chip, IL-2 as analyte)", "description": "as §1"}}, "data": [{"binder": "B1", "values": [{"measurement": "EC50 of STAT5 activation, mouse CD8 T cells (flow cytometry)", "setting": "[1]", "result": 91.8, "unit": "nM"}, {"measurement": "EC50 of STAT5 activation, mouse NK cells (flow cytometry)", "setting": "[1]", "result": 84, "unit": "nM"}, {"measurement": "EC50 of STAT5 activation, mouse Tregs (flow cytometry)", "setting": "[2]", "result": 52, "unit": "nM"}, {"measurement": "binding result", "setting": "[3]", "result": "no binding (tested: 7.813-250 nM)"}, {"measurement": "binding result", "setting": "[4]", "result": "no binding (tested: 0.977-250 nM)"}, {"measurement": "binding result", "setting": "[5]", "result": "no binding (tested: 0.977-500 nM)"}]}]}
